# Test results published in article PMC9482650, “Quantitative fragmentomics allow affinity mapping of interactomes” (Nature Communications, 2022).
# T1: APBA2_2, Q99767
# T1 sequence (Q99767 654-744, limits assumed, looked up): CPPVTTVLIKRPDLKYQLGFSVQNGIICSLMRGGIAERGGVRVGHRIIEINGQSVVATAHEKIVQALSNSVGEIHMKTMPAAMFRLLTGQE
# T2: DFNB31_2, Q9P202
# T2 sequence (Q9P202 274-371, limits assumed, looked up): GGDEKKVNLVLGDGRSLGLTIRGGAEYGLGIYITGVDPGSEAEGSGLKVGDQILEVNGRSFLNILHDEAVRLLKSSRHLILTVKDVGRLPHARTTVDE
# T3: GRIP1_7, Q9Y3R0
# T3 sequence (Q9Y3R0 999-1096, limits assumed, looked up): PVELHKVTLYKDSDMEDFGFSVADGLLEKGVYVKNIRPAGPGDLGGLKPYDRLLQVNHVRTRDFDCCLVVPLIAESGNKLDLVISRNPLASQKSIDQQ
# T4: HTRA4, P83105
# T4 sequence (P83105 378-476, limits assumed, looked up): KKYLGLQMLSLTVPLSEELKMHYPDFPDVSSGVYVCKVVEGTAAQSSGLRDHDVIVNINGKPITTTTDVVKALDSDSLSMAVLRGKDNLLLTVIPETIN
# T5: LIN7A, O14910
# T5 sequence (O14910 103-200, limits assumed, looked up): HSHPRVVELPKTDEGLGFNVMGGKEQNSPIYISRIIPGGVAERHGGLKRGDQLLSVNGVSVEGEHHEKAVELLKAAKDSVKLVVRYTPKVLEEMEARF
# T6: LNX2_2, Q8N448
# T6 sequence (Q8N448 334-432, limits assumed, looked up): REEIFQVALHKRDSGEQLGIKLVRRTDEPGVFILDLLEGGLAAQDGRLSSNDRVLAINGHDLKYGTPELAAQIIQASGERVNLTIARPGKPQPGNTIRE
# T7: MPDZ_10, O75970
# T7 sequence (O75970 1624-1722, limits assumed, looked up): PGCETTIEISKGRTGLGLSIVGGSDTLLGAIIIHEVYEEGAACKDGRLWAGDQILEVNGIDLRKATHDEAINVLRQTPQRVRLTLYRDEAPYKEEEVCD
# T8: MPP2, Q14168
# T8 sequence (Q14168 180-250, limits assumed, looked up): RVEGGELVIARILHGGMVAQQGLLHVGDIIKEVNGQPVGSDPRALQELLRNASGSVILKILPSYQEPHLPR
# T9: NHERF3_4, Q5T2W1
# T9 sequence (Q5T2W1 373-468, limits assumed, looked up): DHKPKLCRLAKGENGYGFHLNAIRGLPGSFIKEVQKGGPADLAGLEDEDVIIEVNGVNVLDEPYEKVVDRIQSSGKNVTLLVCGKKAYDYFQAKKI
# T10: PCLO, Q9Y6V0
# T10 sequence (Q9Y6V0 4491-4600, limits assumed, looked up): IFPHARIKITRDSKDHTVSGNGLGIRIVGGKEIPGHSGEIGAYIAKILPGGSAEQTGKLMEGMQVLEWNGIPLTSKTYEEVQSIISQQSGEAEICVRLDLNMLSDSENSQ
# T11: RADIL, Q96JH8
# T11 sequence (Q96JH8 971-1071, limits assumed, looked up): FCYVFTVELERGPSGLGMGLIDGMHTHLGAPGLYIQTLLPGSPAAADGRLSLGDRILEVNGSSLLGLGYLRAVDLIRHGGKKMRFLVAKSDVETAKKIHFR
# T12: TX1BP3, O14907
# T12 sequence (O14907 10-122, limits assumed, looked up): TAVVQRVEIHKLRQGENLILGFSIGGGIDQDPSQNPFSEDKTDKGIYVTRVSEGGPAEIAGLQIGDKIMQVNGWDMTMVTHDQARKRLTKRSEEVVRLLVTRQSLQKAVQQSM
# Target: T1, APBA2_2, Q99767
# Test: holdup assay
# Set-up: key: below the threshold = too weak to quantify, mostly under pKd 3.1 to 4
# Conditions: plain residues with an end cap or a label only (N-terminal biotin on a linker: ado-ado)
row,pKd,Binder
1,below the threshold,"TNSKQGETTV [FZD1, Q9UP38]"
2,below the threshold,"KSRPENGTVC [TMEM178B, H3BS89]"

# Target: ARHGEF12, Q9NZN5-2
# Test: holdup assay
# Set-up: key: below the threshold = too weak to quantify, mostly under pKd 3.1 to 4
# Conditions: plain residues with an end cap or a label only (N-terminal biotin on a linker: ado-ado)
# ARHGEF12, Q9NZN5-2, sequence (Q9NZN5 other isoform, or with tags, fused parts or gaps): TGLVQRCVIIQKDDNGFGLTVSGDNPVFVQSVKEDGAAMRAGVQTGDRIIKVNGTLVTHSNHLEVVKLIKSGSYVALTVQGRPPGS
row,pKd,Binder
1,below the threshold,"TNSKQGETTV [FZD1, Q9UP38]"
2,3.65,"KSRPENGTVC [TMEM178B, H3BS89]"

# Target: T2, DFNB31_2, Q9P202
# Test: holdup assay
# Set-up: key: below the threshold = too weak to quantify, mostly under pKd 3.1 to 4
# Conditions: plain residues with an end cap or a label only (N-terminal biotin on a linker: ado-ado)
row,pKd,Binder
1,below the threshold,"TNSKQGETTV [FZD1, Q9UP38]"
2,below the threshold,"KSRPENGTVC [TMEM178B, H3BS89]"

# Target: FRMPD2_2, Q68DX3
# Test: holdup assay
# Set-up: key: below the threshold = too weak to quantify, mostly under pKd 3.1 to 4
# Conditions: plain residues with an end cap or a label only (N-terminal biotin on a linker: ado-ado)
# FRMPD2_2, Q68DX3, sequence (Q68DX3 944-1038): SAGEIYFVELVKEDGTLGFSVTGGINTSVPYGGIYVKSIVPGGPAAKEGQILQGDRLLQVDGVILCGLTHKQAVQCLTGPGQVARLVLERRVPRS
row,pKd,Binder
1,below the threshold,"TNSKQGETTV [FZD1, Q9UP38]"
2,below the threshold,"KSRPENGTVC [TMEM178B, H3BS89]"

# Target: FRMPD2_3, Q68DX3
# Test: holdup assay
# Set-up: key: below the threshold = too weak to quantify, mostly under pKd 3.1 to 4
# Conditions: plain residues with an end cap or a label only (N-terminal biotin on a linker: ado-ado)
# FRMPD2_3, Q68DX3, sequence (Q68DX3 1073-1166): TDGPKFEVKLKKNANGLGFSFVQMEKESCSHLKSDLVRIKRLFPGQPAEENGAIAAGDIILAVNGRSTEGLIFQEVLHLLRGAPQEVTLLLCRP
row,pKd,Binder
1,3.74,"TNSKQGETTV [FZD1, Q9UP38]"
2,below the threshold,"KSRPENGTVC [TMEM178B, H3BS89]"

# Target: T3, GRIP1_7, Q9Y3R0
# Test: holdup assay
# Set-up: key: below the threshold = too weak to quantify, mostly under pKd 3.1 to 4
# Conditions: plain residues with an end cap or a label only (N-terminal biotin on a linker: ado-ado)
row,pKd,Binder
1,below the threshold,"TNSKQGETTV [FZD1, Q9UP38]"
2,below the threshold,"KSRPENGTVC [TMEM178B, H3BS89]"

# Target: T4, HTRA4, P83105
# Test: holdup assay
# Set-up: key: below the threshold = too weak to quantify, mostly under pKd 3.1 to 4
# Conditions: plain residues with an end cap or a label only (N-terminal biotin on a linker: ado-ado)
row,pKd,Binder
1,3.79,"TNSKQGETTV [FZD1, Q9UP38]"
2,below the threshold,"KSRPENGTVC [TMEM178B, H3BS89]"

# Target: IL16_3, Q14005
# Test: holdup assay
# Set-up: key: below the threshold = too weak to quantify, mostly under pKd 3.1 to 4
# Conditions: plain residues with an end cap or a label only (N-terminal biotin on a linker: ado-ado)
# IL16_3, Q14005, sequence (Q14005 1107-1207): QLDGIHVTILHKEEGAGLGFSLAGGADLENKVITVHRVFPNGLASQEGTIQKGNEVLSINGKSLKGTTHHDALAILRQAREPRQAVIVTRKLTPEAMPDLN
row,pKd,Binder
1,below the threshold,"TNSKQGETTV [FZD1, Q9UP38]"
2,below the threshold,"KSRPENGTVC [TMEM178B, H3BS89]"

# Target: Inadl_10, Q8NI35
# Test: holdup assay
# Set-up: key: below the threshold = too weak to quantify, mostly under pKd 3.1 to 4
# Conditions: plain residues with an end cap or a label only (N-terminal biotin on a linker: ado-ado)
# Inadl_10, Q8NI35, sequence (Q8NI35 1673-1763): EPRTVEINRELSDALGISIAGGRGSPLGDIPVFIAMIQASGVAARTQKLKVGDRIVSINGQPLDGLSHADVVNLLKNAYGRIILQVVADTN
row,pKd,Binder
1,below the threshold,"TNSKQGETTV [FZD1, Q9UP38]"
2,below the threshold,"KSRPENGTVC [TMEM178B, H3BS89]"

# Target: Inadl_5, Q8NI35
# Test: holdup assay
# Set-up: key: below the threshold = too weak to quantify, mostly under pKd 3.1 to 4
# Conditions: plain residues with an end cap or a label only (N-terminal biotin on a linker: ado-ado)
# Inadl_5, Q8NI35, sequence (Q8NI35 673-780): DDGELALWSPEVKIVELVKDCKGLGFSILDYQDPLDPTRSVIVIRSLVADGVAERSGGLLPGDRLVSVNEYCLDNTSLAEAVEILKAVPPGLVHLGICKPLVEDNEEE
row,pKd,Binder
1,3.5,"TNSKQGETTV [FZD1, Q9UP38]"
2,below the threshold,"KSRPENGTVC [TMEM178B, H3BS89]"

# Target: Inadl_8, Q8NI35
# Test: holdup assay
# Set-up: key: below the threshold = too weak to quantify, mostly under pKd 3.1 to 4
# Conditions: plain residues with an end cap or a label only (N-terminal biotin on a linker: ado-ado)
# Inadl_8, Q8NI35, sequence (Q8NI35 1425-1530): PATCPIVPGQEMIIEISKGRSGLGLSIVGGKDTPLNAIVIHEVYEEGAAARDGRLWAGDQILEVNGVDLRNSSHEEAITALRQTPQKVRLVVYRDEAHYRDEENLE
row,pKd,Binder
1,below the threshold,"TNSKQGETTV [FZD1, Q9UP38]"
2,below the threshold,"KSRPENGTVC [TMEM178B, H3BS89]"

# Target: Inadl_9, Q8NI35
# Test: holdup assay
# Set-up: key: below the threshold = too weak to quantify, mostly under pKd 3.1 to 4
# Conditions: plain residues with an end cap or a label only (N-terminal biotin on a linker: ado-ado)
# Inadl_9, Q8NI35, sequence (Q8NI35 1530-1615): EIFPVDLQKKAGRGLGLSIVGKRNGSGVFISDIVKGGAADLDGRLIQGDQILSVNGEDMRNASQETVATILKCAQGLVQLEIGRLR
row,pKd,Binder
1,3.57,"TNSKQGETTV [FZD1, Q9UP38]"
2,below the threshold,"KSRPENGTVC [TMEM178B, H3BS89]"

# Target: T5, LIN7A, O14910
# Test: holdup assay
# Set-up: key: below the threshold = too weak to quantify, mostly under pKd 3.1 to 4
# Conditions: plain residues with an end cap or a label only (N-terminal biotin on a linker: ado-ado)
row,pKd,Binder
1,3.72,"TNSKQGETTV [FZD1, Q9UP38]"
2,below the threshold,"KSRPENGTVC [TMEM178B, H3BS89]"

# Target: LNX1_3, Q8TBB1
# Test: holdup assay
# Set-up: key: below the threshold = too weak to quantify, mostly under pKd 3.1 to 4
# Conditions: plain residues with an end cap or a label only (N-terminal biotin on a linker: ado-ado)
# LNX1_3, Q8TBB1, sequence (Q8TBB1 500-596): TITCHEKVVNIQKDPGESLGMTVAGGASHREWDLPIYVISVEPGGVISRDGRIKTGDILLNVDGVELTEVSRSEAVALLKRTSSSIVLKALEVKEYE
row,pKd,Binder
1,below the threshold,"TNSKQGETTV [FZD1, Q9UP38]"
2,below the threshold,"KSRPENGTVC [TMEM178B, H3BS89]"

# Target: T6, LNX2_2, Q8N448
# Test: holdup assay
# Set-up: key: below the threshold = too weak to quantify, mostly under pKd 3.1 to 4
# Conditions: plain residues with an end cap or a label only (N-terminal biotin on a linker: ado-ado)
row,pKd,Binder
1,4.71,"TNSKQGETTV [FZD1, Q9UP38]"
2,4.32,"KSRPENGTVC [TMEM178B, H3BS89]"

# Target: MAGI1_1, Q96QZ7
# Test: holdup assay
# Set-up: key: below the threshold = too weak to quantify, mostly under pKd 3.1 to 4
# Conditions: plain residues with an end cap or a label only (N-terminal biotin on a linker: ado-ado)
# MAGI1_1, Q96QZ7, sequence (Q96QZ7 1-106): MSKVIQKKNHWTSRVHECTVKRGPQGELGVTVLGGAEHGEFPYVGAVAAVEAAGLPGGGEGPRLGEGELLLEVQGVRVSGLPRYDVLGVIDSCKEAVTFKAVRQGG
row,pKd,Binder
1,below the threshold,"TNSKQGETTV [FZD1, Q9UP38]"
2,below the threshold,"KSRPENGTVC [TMEM178B, H3BS89]"

# Target: MAGI1_2, Q96QZ7
# Test: holdup assay
# Set-up: key: below the threshold = too weak to quantify, mostly under pKd 3.1 to 4
# Conditions: plain residues with an end cap or a label only (N-terminal biotin on a linker: ado-ado)
# MAGI1_2, Q96QZ7, sequence (Q96QZ7 456-580): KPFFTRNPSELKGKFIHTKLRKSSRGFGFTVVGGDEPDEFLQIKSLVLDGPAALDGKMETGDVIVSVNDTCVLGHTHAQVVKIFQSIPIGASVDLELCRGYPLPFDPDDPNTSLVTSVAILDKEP
row,pKd,Binder
1,3.82,"TNSKQGETTV [FZD1, Q9UP38]"
2,below the threshold,"KSRPENGTVC [TMEM178B, H3BS89]"

# Target: MAGI3_2, Q5TCQ9
# Test: holdup assay
# Set-up: key: below the threshold = too weak to quantify, mostly under pKd 3.1 to 4
# Conditions: plain residues with an end cap or a label only (N-terminal biotin on a linker: ado-ado)
# MAGI3_2, Q5TCQ9, sequence (Q5TCQ9 398-503): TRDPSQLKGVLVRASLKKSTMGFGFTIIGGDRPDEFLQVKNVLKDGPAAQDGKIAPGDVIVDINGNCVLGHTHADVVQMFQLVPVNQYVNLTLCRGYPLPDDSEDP
row,pKd,Binder
1,4.94,"TNSKQGETTV [FZD1, Q9UP38]"
2,below the threshold,"KSRPENGTVC [TMEM178B, H3BS89]"

# Target: T7, MPDZ_10, O75970
# Test: holdup assay
# Set-up: key: below the threshold = too weak to quantify, mostly under pKd 3.1 to 4
# Conditions: plain residues with an end cap or a label only (N-terminal biotin on a linker: ado-ado)
row,pKd,Binder
1,below the threshold,"TNSKQGETTV [FZD1, Q9UP38]"
2,below the threshold,"KSRPENGTVC [TMEM178B, H3BS89]"

# Target: T8, MPP2, Q14168
# Test: holdup assay
# Set-up: key: below the threshold = too weak to quantify, mostly under pKd 3.1 to 4
# Conditions: plain residues with an end cap or a label only (N-terminal biotin on a linker: ado-ado)
row,pKd,Binder
1,below the threshold,"TNSKQGETTV [FZD1, Q9UP38]"
2,below the threshold,"KSRPENGTVC [TMEM178B, H3BS89]"

# Target: T9, NHERF3_4, Q5T2W1
# Test: holdup assay
# Set-up: key: below the threshold = too weak to quantify, mostly under pKd 3.1 to 4
# Conditions: plain residues with an end cap or a label only (N-terminal biotin on a linker: ado-ado)
row,pKd,Binder
1,below the threshold,"TNSKQGETTV [FZD1, Q9UP38]"
2,below the threshold,"KSRPENGTVC [TMEM178B, H3BS89]"

# Target: T10, PCLO, Q9Y6V0
# Test: holdup assay
# Set-up: key: below the threshold = too weak to quantify, mostly under pKd 3.1 to 4
# Conditions: plain residues with an end cap or a label only (N-terminal biotin on a linker: ado-ado)
row,pKd,Binder
1,below the threshold,"TNSKQGETTV [FZD1, Q9UP38]"
2,below the threshold,"KSRPENGTVC [TMEM178B, H3BS89]"

# Target: T11, RADIL, Q96JH8
# Test: holdup assay
# Set-up: key: below the threshold = too weak to quantify, mostly under pKd 3.1 to 4
# Conditions: plain residues with an end cap or a label only (N-terminal biotin on a linker: ado-ado)
row,pKd,Binder
1,3.63,"TNSKQGETTV [FZD1, Q9UP38]"
2,below the threshold,"KSRPENGTVC [TMEM178B, H3BS89]"

# Target: TJP1_2, Q07157
# Test: holdup assay
# Set-up: key: below the threshold = too weak to quantify, mostly under pKd 3.1 to 4
# Conditions: plain residues with an end cap or a label only (N-terminal biotin on a linker: ado-ado)
# TJP1_2, Q07157, sequence (Q07157 181-274): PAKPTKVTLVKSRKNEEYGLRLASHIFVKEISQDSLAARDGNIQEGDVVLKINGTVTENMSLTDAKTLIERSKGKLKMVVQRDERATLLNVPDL
row,pKd,Binder
1,3.48,"TNSKQGETTV [FZD1, Q9UP38]"
2,below the threshold,"KSRPENGTVC [TMEM178B, H3BS89]"

# Target: TJP2_1, Q9UDY2
# Test: holdup assay
# Set-up: key: below the threshold = too weak to quantify, mostly under pKd 3.1 to 4
# Conditions: plain residues with an end cap or a label only (N-terminal biotin on a linker: ado-ado)
# TJP2_1, Q9UDY2, sequence (Q9UDY2 24-128): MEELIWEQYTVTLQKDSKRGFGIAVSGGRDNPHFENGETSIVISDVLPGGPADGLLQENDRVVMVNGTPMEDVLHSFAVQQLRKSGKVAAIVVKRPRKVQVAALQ
row,pKd,Binder
1,below the threshold,"TNSKQGETTV [FZD1, Q9UP38]"
2,below the threshold,"KSRPENGTVC [TMEM178B, H3BS89]"

# Target: T12, TX1BP3, O14907
# Test: holdup assay
# Set-up: key: below the threshold = too weak to quantify, mostly under pKd 3.1 to 4
# Conditions: plain residues with an end cap or a label only (N-terminal biotin on a linker: ado-ado)
row,pKd,Binder
1,4.17,"TNSKQGETTV [FZD1, Q9UP38]"
2,below the threshold,"KSRPENGTVC [TMEM178B, H3BS89]"
